Measurements as given in PMC10828586, “Unmasking crucial residues in adipose triglyceride lipase for coactivation with comparative gene identification-58” (Journal of Lipid Research, 2023).

Columns and labels:
Assay in all cases: cell-based or functional assay
[1] = target: T1, Xpress-mATGL, full-length, WT (Mus musculus, UniProt Q8BJ56 1-486)
T1 sequence (looked up): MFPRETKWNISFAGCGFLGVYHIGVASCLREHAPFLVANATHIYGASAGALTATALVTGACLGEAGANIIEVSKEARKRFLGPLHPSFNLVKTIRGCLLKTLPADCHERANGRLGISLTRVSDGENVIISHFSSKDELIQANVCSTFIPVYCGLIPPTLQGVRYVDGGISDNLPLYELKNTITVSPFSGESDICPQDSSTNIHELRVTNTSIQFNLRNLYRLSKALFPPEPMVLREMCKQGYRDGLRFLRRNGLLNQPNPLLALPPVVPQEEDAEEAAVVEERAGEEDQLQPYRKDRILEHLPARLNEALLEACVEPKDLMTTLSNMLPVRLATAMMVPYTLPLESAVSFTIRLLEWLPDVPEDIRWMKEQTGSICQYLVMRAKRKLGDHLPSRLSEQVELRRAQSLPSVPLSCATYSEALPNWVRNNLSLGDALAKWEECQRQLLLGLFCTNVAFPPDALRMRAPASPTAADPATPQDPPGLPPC

[2] = target: T2, Xpress-mATGL288, WT (truncated after residue 288) (Mus musculus, UniProt Q8BJ56 1-288)
T2 sequence (looked up): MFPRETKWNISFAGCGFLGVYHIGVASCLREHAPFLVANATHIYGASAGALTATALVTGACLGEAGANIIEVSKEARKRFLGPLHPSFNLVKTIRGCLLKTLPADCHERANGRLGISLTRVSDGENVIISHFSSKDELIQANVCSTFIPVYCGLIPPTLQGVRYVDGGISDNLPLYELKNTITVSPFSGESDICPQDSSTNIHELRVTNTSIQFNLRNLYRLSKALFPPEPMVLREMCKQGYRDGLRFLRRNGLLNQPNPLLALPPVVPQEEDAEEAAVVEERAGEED

[3] = target: T3, Xpress-mATGL288 N209A/I212A/N215A (Mus musculus, UniProt Q8BJ56 1-288, N209A | I212A | N215A)
T3 sequence (looked up): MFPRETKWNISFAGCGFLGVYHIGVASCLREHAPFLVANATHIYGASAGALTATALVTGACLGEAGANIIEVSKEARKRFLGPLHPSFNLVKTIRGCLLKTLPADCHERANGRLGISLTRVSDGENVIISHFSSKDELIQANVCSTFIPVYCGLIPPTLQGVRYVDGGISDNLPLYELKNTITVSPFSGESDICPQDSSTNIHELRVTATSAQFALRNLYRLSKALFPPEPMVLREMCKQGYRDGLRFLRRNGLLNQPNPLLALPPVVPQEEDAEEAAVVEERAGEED

[4] = target: T4, smt3-mATGL288-StrepII (mouse adipose triglyceride lipase truncated after residue 288), WT (Mus musculus, UniProt Q8BJ56 1-288)
T4 sequence (looked up): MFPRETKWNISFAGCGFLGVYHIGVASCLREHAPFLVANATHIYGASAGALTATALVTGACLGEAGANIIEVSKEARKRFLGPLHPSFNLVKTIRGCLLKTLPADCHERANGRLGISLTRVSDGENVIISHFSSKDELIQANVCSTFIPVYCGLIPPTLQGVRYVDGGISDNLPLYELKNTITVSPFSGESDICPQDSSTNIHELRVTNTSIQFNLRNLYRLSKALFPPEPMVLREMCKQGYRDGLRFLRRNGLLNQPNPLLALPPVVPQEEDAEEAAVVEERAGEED

[5] = target: T5, smt3-mATGL288-StrepII N209A (Mus musculus, UniProt Q8BJ56 1-288, N209A)
T5 sequence (looked up): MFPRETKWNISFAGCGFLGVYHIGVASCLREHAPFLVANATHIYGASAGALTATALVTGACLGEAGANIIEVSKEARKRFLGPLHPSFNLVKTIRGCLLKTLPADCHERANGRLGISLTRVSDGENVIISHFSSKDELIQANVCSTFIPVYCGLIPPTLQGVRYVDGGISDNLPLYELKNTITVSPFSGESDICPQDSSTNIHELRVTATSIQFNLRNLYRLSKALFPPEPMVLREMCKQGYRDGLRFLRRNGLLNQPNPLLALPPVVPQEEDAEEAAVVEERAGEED

[6] = target: T6, smt3-mATGL288-StrepII I212A (Mus musculus, UniProt Q8BJ56 1-288, I212A)
T6 sequence (looked up): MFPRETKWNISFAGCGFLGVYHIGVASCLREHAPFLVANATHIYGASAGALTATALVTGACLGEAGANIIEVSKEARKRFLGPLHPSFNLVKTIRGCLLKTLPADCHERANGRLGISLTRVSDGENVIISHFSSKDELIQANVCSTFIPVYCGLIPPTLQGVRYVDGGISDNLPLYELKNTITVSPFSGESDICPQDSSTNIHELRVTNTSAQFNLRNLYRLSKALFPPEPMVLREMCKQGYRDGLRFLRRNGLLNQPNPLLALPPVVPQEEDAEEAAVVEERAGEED

[7] = target: T7, smt3-mATGL288-StrepII I212S (Mus musculus, UniProt Q8BJ56 1-288, I212S)
T7 sequence (looked up): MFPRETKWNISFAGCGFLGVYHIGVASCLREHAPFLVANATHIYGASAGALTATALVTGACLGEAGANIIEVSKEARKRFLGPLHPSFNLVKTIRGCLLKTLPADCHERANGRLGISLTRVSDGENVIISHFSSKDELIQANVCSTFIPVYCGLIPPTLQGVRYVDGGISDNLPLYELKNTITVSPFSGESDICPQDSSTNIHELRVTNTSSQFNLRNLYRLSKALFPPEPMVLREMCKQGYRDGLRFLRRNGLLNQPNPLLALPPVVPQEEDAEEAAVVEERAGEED

[8] = target: T8, smt3-mATGL288-StrepII N215A (Mus musculus, UniProt Q8BJ56 1-288, N215A)
T8 sequence (looked up): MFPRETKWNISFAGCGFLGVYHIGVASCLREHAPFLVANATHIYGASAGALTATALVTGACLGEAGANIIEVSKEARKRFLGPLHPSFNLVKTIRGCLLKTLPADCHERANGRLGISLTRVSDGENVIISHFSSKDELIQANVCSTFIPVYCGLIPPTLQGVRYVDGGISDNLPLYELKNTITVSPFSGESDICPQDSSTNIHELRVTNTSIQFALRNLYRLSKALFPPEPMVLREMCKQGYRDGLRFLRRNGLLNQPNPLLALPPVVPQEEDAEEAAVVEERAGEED

B1: smt3-mCGI-58-His6 (mouse comparative gene identification-58) (natural protein, UniProt Q9DBL9 1-351, looked up)
chain: MKAMAAEEEVDSADAGGGSGWLTGWLPTWCPTSTSHLKEAEEKMLKCVPCTYKKEPVRISNGNRIWTLMFSHNISSKTPLVLLHGFGGGLGLWALNFEDLSTDRPVYAFDLLGFGRSSRPRFDSDAEEVENQFVESIEEWRCALRLDKMILLGHNLGGFLAAAYSLKYPSRVSHLILVEPWGFPERPDLADQERPIPVWIRALGAALTPFNPLAGLRIAGPFGLSLVQRLRPDFKRKYSSMFEDDTVTEYIYHCNVQTPSGETAFKNMTIPYGWAKRPMLQRIGGLHPDIPVSVIFGARSCIDGNSGTSIQSLRPKSYVKTIAILGAGHYVYADQPEEFNQKVKEICHTVD
In the case of B1, the “fold activation of TG hydrolase activity by mCGI-58 (Expi293F lysate)” value (“fold activation of TG hydrolase activity” for short) [1] is reported as about 20 fold, the “fold activation of TG hydrolase activity” value [2] is reported as 11 fold and the “fold activation of TG hydrolase activity” value [3] is reported as at most 2 fold. For the same binder, the “EC50 of mCGI-58 for coactivation of TG hydrolase activity (25 μg bacterial lysate with mATGL288, purified mCGI-58 up to 2,300 nM)” value [4] was 178 nM, the “EC50 of mCGI-58 for coactivation of TG hydrolase activity (25 μg bacterial lysate with mATGL288 N209A, purified mCGI-58 up to 2,300 nM)” value [5] was 500 nM and the “EC50 of mCGI-58 for coactivation of TG hydrolase activity (25 μg bacterial lysate with mATGL288 I212A, purified mCGI-58 up to 2,300 nM)” value [6] was 500 nM. For the same binder, the “EC50 of mCGI-58 for coactivation of TG hydrolase activity (25 μg bacterial lysate with mATGL288 I212S, purified mCGI-58 up to 2,300 nM)” value [7] was 200 nM and the “EC50 of mCGI-58 for coactivation of TG hydrolase activity (25 μg bacterial lysate with mATGL288 N215A, purified mCGI-58 up to 2,300 nM)” value [8] was 200 nM.
